Test [1] concerns the target T1, His tagged cynomolgus MET ECD (Sinobiological) (cynomolgus).
T1 construct: extracellular domain; Bought monovalent antigen
The experiment in a line: SPR (Bio-Rad XPR-36); antibody captured on anti-human IgG Fc surface, MET ECD 25 to 1.56 nM, 1:1 Langmuir fit.
Description: His tagged human or cynomolgus MET ECD antigens were purchased from Sinobiological, China. […] Measurements were conducted with a plate rotation speed of 1000 rpm and sensors were regenerated and reused by brief 5 second alternations between exposure to 10 mM Glycine:HCl buffer (pH 1.5) or PBS buffer containing 1% BSA and 0.001% Tween 20 three times. For the Surface Plasmon Resonance experiments conducted on the Bio-Rad XPR-36 instrument, anti-MET antibodies were adjusted to a concentration of 0.25-0.5 μg/ml and captured on anti-human IgG Fc surfaces generated by immobilizing a monoclonal anti-human Fc antibody (Biacore, Denmark). […] The recorded binding responses were fitted to a simple Langmuir 1:1 binding model for calculation of the on-rate (kon or ka), off-rate (koff or kd) and affinity (KD) constants using double referencing.

Test [2] concerns the target T2, Mouse MET.
T2 construct: on transfected HEK293 cells; also called murine MET ECD-SV5-GPI
T2 MET ECD-SV5-GPI fusion: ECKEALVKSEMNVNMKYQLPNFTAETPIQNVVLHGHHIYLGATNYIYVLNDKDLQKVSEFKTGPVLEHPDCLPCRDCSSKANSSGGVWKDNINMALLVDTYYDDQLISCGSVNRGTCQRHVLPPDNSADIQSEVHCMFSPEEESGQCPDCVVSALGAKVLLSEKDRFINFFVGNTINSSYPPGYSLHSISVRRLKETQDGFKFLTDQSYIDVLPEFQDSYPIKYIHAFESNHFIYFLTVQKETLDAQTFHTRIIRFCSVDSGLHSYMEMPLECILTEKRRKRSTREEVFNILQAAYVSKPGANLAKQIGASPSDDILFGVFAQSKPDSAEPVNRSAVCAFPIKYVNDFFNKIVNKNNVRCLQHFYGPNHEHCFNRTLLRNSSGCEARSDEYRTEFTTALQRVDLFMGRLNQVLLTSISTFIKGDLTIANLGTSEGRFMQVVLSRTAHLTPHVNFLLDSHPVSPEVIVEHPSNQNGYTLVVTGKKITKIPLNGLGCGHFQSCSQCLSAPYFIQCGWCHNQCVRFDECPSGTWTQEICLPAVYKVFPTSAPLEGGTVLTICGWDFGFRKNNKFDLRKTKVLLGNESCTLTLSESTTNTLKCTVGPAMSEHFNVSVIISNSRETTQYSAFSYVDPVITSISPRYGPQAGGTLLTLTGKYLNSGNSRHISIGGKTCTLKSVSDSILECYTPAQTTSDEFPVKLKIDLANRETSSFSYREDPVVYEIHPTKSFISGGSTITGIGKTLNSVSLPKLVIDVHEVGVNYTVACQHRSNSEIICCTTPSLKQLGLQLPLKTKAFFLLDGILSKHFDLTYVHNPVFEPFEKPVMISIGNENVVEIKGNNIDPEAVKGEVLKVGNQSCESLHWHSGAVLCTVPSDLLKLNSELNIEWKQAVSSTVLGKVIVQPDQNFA
Kind of test: flow cytometry on transfected HEK293 cells. (In general: A flow cytometer gives signals particle by particle.)
Description: (§1) Cut-off values defined as the average fluorescence signal of all antibodies tested at 50 μg/ml to the negative control chicken or mouse MET construct+four standard deviations were employed to discriminate background binding from specific binding for the domain exchange or blade exchange constructs.

Test [3] has as its target T3, Mouse Blade 1-5.
T3 construct: human/mouse chimera on transfected HEK293 cells; also called AA 25-430
T3 MET ECD-SV5-GPI fusion: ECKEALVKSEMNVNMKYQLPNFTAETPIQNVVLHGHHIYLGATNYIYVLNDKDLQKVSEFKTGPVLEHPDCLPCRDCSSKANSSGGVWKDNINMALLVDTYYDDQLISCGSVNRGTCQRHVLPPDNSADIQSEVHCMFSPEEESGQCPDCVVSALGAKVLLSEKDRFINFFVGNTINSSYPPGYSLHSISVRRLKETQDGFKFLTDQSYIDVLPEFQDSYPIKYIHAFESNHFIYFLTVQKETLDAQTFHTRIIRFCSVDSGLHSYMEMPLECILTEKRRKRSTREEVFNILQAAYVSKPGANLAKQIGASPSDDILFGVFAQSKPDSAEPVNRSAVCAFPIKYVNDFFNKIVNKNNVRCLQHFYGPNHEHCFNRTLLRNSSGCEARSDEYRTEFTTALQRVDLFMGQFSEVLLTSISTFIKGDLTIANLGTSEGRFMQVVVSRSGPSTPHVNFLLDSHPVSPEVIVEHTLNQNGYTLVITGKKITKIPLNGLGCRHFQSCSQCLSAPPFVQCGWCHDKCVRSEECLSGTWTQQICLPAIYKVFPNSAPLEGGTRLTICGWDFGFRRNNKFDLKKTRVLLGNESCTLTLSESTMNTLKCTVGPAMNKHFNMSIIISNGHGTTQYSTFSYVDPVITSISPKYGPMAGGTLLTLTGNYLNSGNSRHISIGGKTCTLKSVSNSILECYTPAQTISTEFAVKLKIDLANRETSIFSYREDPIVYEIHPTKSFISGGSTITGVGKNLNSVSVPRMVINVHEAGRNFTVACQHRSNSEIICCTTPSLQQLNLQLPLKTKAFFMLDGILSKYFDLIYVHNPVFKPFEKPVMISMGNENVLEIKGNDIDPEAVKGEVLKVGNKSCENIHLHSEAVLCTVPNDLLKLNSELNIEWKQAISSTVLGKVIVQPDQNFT
Kind of test: flow cytometry on transfected HEK293 cells.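 Note: antibodies applied at 50 µg/ml, binding called specific when fluorescence exceeds the mean signal on a negative control chicken or mouse MET construct plus four SD.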
Description: as §1

Test [4] addresses T4, LS5.
T4 construct: human/mouse chimera on transfected HEK293 cells; also called AA 25-473
T4 MET ECD-SV5-GPI fusion: T3 MET ECD-SV5-GPI fusion with Q408R, F409L, S410N, E411Q, V442L, S445T, G446A, P447H, S448L
Kind of test: flow cytometry on transfected HEK293 cells.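 Note: antibodies applied at 50 µg/ml, binding called specific when fluorescence exceeds the mean signal on a negative control chicken or mouse MET construct plus four SD.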
Description: as §1

Consider two molecules from patent publication US20180327500A1 (SYMPHOGEN A S, published 2018).

Substitutions are numbered along the chain they refer to.

The Kd is the free concentration of one partner at which half of the binding sites on the other are occupied at equilibrium, for simple one-to-one binding. The koff is the rate constant with which the complex falls apart. Low values mean a long-lived complex, high ones a short-lived complex. As usually defined, the kon is the second-order rate constant of association.

B1: humanized antibody 9006 (antibody, human IgG1, kappa, V domains shown)
VH: QVQLVQSGSELKKPGASVKVSCKASGYTFTNFRMNWVKQAPGQGLKWMGWINTYTGEPTYVDDLKGRFVFSLDTSVSTAYLQISSLKAEDTAVYYCARKGIARAMDYWGQGTTVTVSS
VL: DIVMTQSPDSLAVSLGERATINCKSSQSLLDSGNQKNYLAWYQQKPGQPPKLLIFGASTRESGVPDRFSGSGSGTDFTLTISSLQAEDVAVYYCQNDHSYPYTFGQGTKLEIKR
notes: also called Hu9006; hu9006
As to B1, in test [1], the Kd turned out to be 0.086 nM, the koff was 1.6e-05 s⁻¹ and the kon was found to be 180000 M⁻¹ s⁻¹. In addition, the binding result in test [2] is “no binding (tested: 50 µg/ml)”. Moreover, in test [3], the binding result is reported as “no binding (tested: 50 µg/ml)”. Also, the binding result in test [4] is “no binding (tested: 50 µg/ml)”.

B2: humanized antibody 9338 (antibody, human IgG1, kappa, V domains shown)
VH: QVQLVQSGAEVKKPGSSVKVSCKASGYTFTSYWMHWVRQAPGQGLEWMGYINPSSGHIENNQKFKDRVTITADKSTSTAYMELSSLRSEDTAVYYCARGRFAYWGQGTLVTVSS
VL: EIVLTQSPATLSLSPGERATLSCSASSSVSSGYLYWYQQKPGQAPRLLIYSTSNLASGIPARFSGSGSGTDFTLTISSLEPEDFAVYYCHQWSSYPFTFGSGTKLEIKR
notes: also called Hu9338; hu9338
In test [1], B2 showed a Kd of 0.074 nM, a koff of 5.4e-05 s⁻¹ and a kon of 740000 M⁻¹ s⁻¹. Also, in test [2], the binding result is “no binding (tested: 50 µg/ml)”. The binding result in test [3] is given as “no binding (tested: 50 µg/ml)”. For the same molecule, the binding result in test [4] is “no binding (tested: 50 µg/ml)”.
